According to patent US20100222559, “NUCLEIC ACID MOLECULE CAPABLE OF BINDING TO RABBIT-DERIVED lgG ANTIBODY” (published 2010):

B1: SEQ ID NO: 1 RNA aptamer (ssRNA)
RNA: GGGAGAAUUCCGACCAGAAGAAGUUCGAUACGCCGUGGGGUGACGUUGGCUGCCCUUUCCUCUCUCCUCCUUCUUCU
B2: SEQ ID NO: 4 RNA aptamer (ssRNA)
RNA: GGGAGAAUUCCGACCAGAAGCGCAAGCCGGCCCUUGGAAGGCUAGUCGGUCUUUCCUCUCUCCUCCUUCUUCU
B3: SEQ ID NO: 3 RNA aptamer (ssRNA)
RNA: GGGAGAAUUCCGACCAGAAGCAAAUUGCCGGGCCUUGGAAGCCAAGUCGCUUUCCUCUCUCCUCCUUCUUCU
B4: SEQ ID NO: 2 RNA aptamer (ssRNA)
RNA: GGGAGAAUUCCGACCAGAAGUUUUUAAACCGCGCCUUGGAAGCGUACGUUGGCCUUUCCUCUCUCCUCCUUCUUCU
B5: SEQ ID NO: 5 RNA aptamer (ssRNA)
RNA: GGGAGAAUUCCGACCAGAAGUUCGAUACGCCGUGGGGUGACGUUGGCUACCUUUCCUCUCUCCUCCUUCUUCU

Legend:
[1] = tested on: rabbit anti-GST antibody (IgG) (Oryctolagus cuniculus); assay: filter; conditions: 20 nM RNA, 100 nM protein
[2] = tested on: rabbit anti-GST IgG + glutathione-S-transferase (mixture) (Oryctolagus cuniculus / Schistosoma japonicum); assay: filter; conditions: 100 nM GST + 100 nM anti-GST IgG
goat IgG (Capra hircus) = assay: filter; conditions: specificity control, 100 nM protein
mouse IgG (Mus musculus) = assay: filter; conditions: specificity control, 100 nM protein
[3] = tested on: rabbit anti-mouse IgG antibody (Oryctolagus cuniculus); assay: filter; conditions: 20 nM RNA, 100 nM protein, 5 mM MgCl2, RT
[4] = tested on: rabbit anti-mouse IgG antibody (Oryctolagus cuniculus); assay: SPR; conditions: RNA with 5' A24 extension captured on biotin-dT24 SA chip; 25 C
[5] = molecular target: glutathione-S-transferase (GST) (Schistosoma japonicum, UniProt P08515 P08515:2-218); assay: filter; specificity control, 100 nM protein; conditions: tags: prepared in laboratory from GE vector; chain copies: 2; label: 32P (filter assay)
Protocol: (§1) The RNAs (20 nM) set forth in SEQ ID NOS: 1 to 5, and the materials (100 nM each) shown in “Material List” below, were incubated in a binding buffer, and then, their binding strength was measured in accordance with the methods described in “Radiolabeling” and “Binding Experiment” below.
(§2) The resulting mixture was introduced onto a filter (trade name: MF-membrane filter, manufactured by Millipore) by way of suctioning it with a suction device, and then, the filter was washed with a binding buffer that was 20 times the volume of the mixture. The radiation intensity of the filter obtained in this manner was measured with a Bio-Imaging Analyzer BAS-2500 (using, as an imaging plate, BAS-MS2040 manufactured by Fuji Film Co., Ltd.) manufactured by Fuji Film Co., Ltd. The radiation intensity was visualized with Image Reader (Fuji Film Co., Ltd.), and the obtained data were converted into numerical values with Image Gauge ver. 4.0 (Fuji Film Co., Ltd.).

bovine serum albumin = bovine serum albumin (Bos taurus, UniProt P02769 P02769:25-607); assay: filter; specificity control, 100 nM protein; buffer only 0.3%; conditions: tags: SIGMA; label: 32P (filter assay)
Protocol: as §1, §2

Sequence of glutathione-S-transferase (GST) (P08515 2-218, one chain of several): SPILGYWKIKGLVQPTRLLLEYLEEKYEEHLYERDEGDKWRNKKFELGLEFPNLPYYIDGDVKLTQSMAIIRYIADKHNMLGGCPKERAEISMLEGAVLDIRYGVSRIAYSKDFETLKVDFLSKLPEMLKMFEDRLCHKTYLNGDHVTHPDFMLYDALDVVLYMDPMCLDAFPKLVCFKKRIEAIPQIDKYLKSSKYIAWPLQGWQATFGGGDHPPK
Sequence of bovine serum albumin (P02769 25-607, one chain of several): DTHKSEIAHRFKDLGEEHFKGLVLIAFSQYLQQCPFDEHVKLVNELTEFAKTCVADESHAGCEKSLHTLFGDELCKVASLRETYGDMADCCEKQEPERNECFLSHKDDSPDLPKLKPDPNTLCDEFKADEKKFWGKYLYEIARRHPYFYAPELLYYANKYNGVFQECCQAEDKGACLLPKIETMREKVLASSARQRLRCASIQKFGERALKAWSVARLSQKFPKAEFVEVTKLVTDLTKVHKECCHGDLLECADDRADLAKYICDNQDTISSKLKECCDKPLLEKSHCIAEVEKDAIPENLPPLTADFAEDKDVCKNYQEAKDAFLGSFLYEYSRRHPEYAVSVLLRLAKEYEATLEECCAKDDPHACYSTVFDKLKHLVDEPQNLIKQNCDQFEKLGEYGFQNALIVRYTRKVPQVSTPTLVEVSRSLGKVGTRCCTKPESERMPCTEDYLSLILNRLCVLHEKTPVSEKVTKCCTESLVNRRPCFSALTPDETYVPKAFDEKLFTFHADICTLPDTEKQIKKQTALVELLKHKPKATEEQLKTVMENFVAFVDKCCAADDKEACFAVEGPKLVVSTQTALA

| Molecule | binding signal ([1]; buffer only 0.3%) | binding signal [2] | binding signal (goat IgG (Capra hircus)) | binding signal (mouse IgG (Mus musculus)) | binding signal [3] | Kd [4] | binding signal [5] | binding signal (bovine serum albumin) | also measured |
| --- | --- | --- | --- | --- | --- | --- | --- | --- | --- |
| GGGAGAAUUCCGACCAGAAGCGCAAGCCGGCCCUUGGAAGGCUAGUCGGUCUUUCCUCUCUCCUCCUUCUUCU [SEQ ID NO: 4 RNA aptamer] | 23.4 % bound | 20.7 % bound | 0.3 % bound | 0.5 % bound | 23.4 % bound | 103 nM |  |  |  |
| GGGAGAAUUCCGACCAGAAGUUUUUAAACCGCGCCUUGGAAGCGUACGUUGGCCUUUCCUCUCUCCUCCUUCUUCU [SEQ ID NO: 2 RNA aptamer] |  | 14.2 % bound | 0.7 % bound | 0.5 % bound | 24.6 % bound | 51.5 nM |  |  | binding signal ([1]; buffer only 0.4%): 24.6 % bound |
| GGGAGAAUUCCGACCAGAAGUUCGAUACGCCGUGGGGUGACGUUGGCUACCUUUCCUCUCUCCUCCUUCUUCU [SEQ ID NO: 5 RNA aptamer] | 58.1 % bound | 48.8 % bound | 0.3 % bound | 0.5 % bound | 58.1 % bound | 0.0147 nM |  |  |  |
| GGGAGAAUUCCGACCAGAAGAAGUUCGAUACGCCGUGGGGUGACGUUGGCUGCCCUUUCCUCUCUCCUCCUUCUUCU [SEQ ID NO: 1 RNA aptamer] |  | 13.6 % bound | 0.8 % bound | 0.6 % bound |  | 0.013 nM |  |  | binding signal ([1]; buffer only 0.2%): 19.1 % bound; binding signal ([3]; 50 mM HEPES pH 7.4, 150 mM NaCl): 19.1 % bound |
| GGGAGAAUUCCGACCAGAAGCAAAUUGCCGGGCCUUGGAAGCCAAGUCGCUUUCCUCUCUCCUCCUUCUUCU [SEQ ID NO: 3 RNA aptamer] | 20.9 % bound | 14.4 % bound | 1 % bound | 1.8 % bound | 20.9 % bound | 118 nM |  |  |  |
| B1 |  |  |  |  |  |  | 0.7 % bound |  |  |
| B2 |  |  |  |  |  |  | 0.4 % bound | 0.4 % bound |  |
| B3 |  |  |  |  |  |  | 0.6 % bound | 1 % bound |  |
| B4 |  |  |  |  |  |  | 0.6 % bound |  |  |
| B5 |  |  |  |  |  |  | 0.6 % bound | 0.9 % bound |  |
